According to publication PMC12693692, “Benzodioxane-benzamides targeting bacterial cell division protein FtsZ potentially disrupt SlmA-mediated nucleoid occlusion and reversible biomolecular condensation” (International journal of biological macromolecules, 2025):

B1: SlmA (E. coli nucleoid occlusion protein), bound to its DNA site SBS (natural protein, UniProt P0C093 1-198, looked up)
chain: MAEKQTAKRNRREEILQSLALMLESSDGSQRITTAKLAASVGVSEAALYRHFPSKTRMFDSLIEFIEDSLITRINLILKDEKDTTARLRLIVLLLLGFGERNPGLTRILTGHALMFEQDRLQGRINQLFERIEAQLRQVLREKRMREGEGYTTDETLLASQILAFCEGMLSRFVRSEFKYRPTDDFDARWPLIAAQLQ
notes: SlmA, E. coli; the DNA is not a chain; also called SlmA-SBS; SlmA nucleoprotein complexes
B2: FtsZ (E. coli cell division protein, tubulin-like GTPase) (natural protein, UniProt P0A9A6 1-383, looked up)
chain: MFEPMELTNDAVIKVIGVGGGGGNAVEHMVRERIEGVEFFAVNTDAQALRKTAVGQTIQIGSGITKGLGAGANPEVGRNAADEDRDALRAALEGADMVFIAAGMGGGTGTGAAPVVAEVAKDLGILTVAVVTKPFNFEGKKRMAFAEQGITELSKHVDSLITIPNDKLLKVLGRGISLLDAFGAANDVLKGAVQGIAELITRPGLMNVDFADVRTVMSEMGYAMMGSGVASGEDRAEEAAEMAISSPLLEDIDLSGARGVLVNITAGFDLRLDEFETVGNTIRAFASDNATVVIGTSLDPDMNDELRVTVVATGIGMDKRPEITLVTNKQVQQPVMDRYQQHGMAPLTQEQKPVAKVVNDNAPQTAKEPDYLDIPAFLRKQAD
modifications: tracer fraction only (10-50 nM in 10 uM unlabeled FtsZ): Alexa Fluor 488 succinimidyl ester at the amino groups, 0.4-0.5 mol of dye per mole of protein
notes: FtsZ, E. coli; it is kept as the same molecule; Polymers were triggered with GTP; also called FtsZ-GTP; FtsZ polymers

Assays:
[1] = target: B2; assay: fluorescence polarisation; fluorescence anisotropy binding titration in solution: SlmA (1 uM) and SBS-Fl (10 nM) with increasing concentrations of FtsZ, right after 2 mM GTP; with or without 20 uM FZ95 or FZ100; 25 C; 50 mM Tris-HCl pH 7.5, 300 mM KCl, 5 mM MgCl2; 1:1 model, apparent parameters; conditions: both partners purified
[2] = target: the molecule itself; assay: fluorescence correlation spectroscopy; FtsZ 10 uM (10 nM FtsZ-Alexa 488 as tracer), with 2 mM GTP and regeneration system against no GTP; dilute solution buffer; self-association into polymers

binding result [1]	Binder	binding result [2]
binds	B1	–
–	B2	binds
